The source of these data is US20050118638A1 (RSR, published 2005).

Experiment [1] deals with human TSHR expressed on Chinese hamster ovary (CHO) cells (human, UniProt P16473 21-764). Put plainly: cell-based or functional assay.
Experiment [2] deals with TSH receptor of isolated porcine thyroid cells (porcine, UniProt Q8SPP9 22-764). Put plainly: cell-based or functional assay.
Experiment [3] addresses T1, TSH receptor (detergent solubilised TSH receptor preparation) (UniProt P16473 21-764, limits assumed).
T1 construct: In some assays captured or labelled through MAb 4E31 F(ab)2; also called thyrotrophin receptor
Put plainly: 125I-TSH, TSHR coated tubes; 2 µg/ml. Here is the method:
(§1) In particular the MAb 4E31 reactive with the TSHR C terminus (10 μg/mL F(ab)₂ preparation in 0.1 M Na₂CO₃ pH 9.2) was added to plastic tubes (Nune Maxisorp, 200 μL per tube) and coating allowed to proceed overnight 4° C. After washing and post-coating (10 mg/mL bovine serum albumin) the tubes were washed again with assay buffer (10 mM Tris-HCl pH 7.8, 50 mM NaCl, 1 mg/mL bovine serum albumin, 0.1% Triton X-100). 200 μL of a detergent solubilised TSHR preparation was then added and incubated overnight at 4° C. followed by aspiration and washing steps. Thereafter, 20 μL of “start” buffer (10 mM Tris-HCl pH 7.8, 50 mM NaCl, bovine serum albumin 1 mg/mL, 6 mM NaN₃, 1% Triton X-100) was added to the TSHR coated tubes followed by 100 μL of purified MAb IgG or patient sera and incubated at room temperature for 2 hours with gentle shaking. […] The tubes were then washed twice with 1 mL of assay buffer, aspirated and counted in a gamma counter.

Experiment [4] concerns the target T1, TSH receptor (detergent solubilised TSH …). In words: solubilised TSHR, PEG method; IgG 100 µg/ml; competitor 125I-16E5 Fab.
Experiment [5] shares this target. In words: 125I-TSH, TSHR coated tubes; 20 µg/ml. Here is the method: as §1
Experiment [6] shares this target. In words: 125I-TSH, TSHR coated tubes; tested at 10 µg/ml. The protocol: as §1

Chain of human TSHR expressed on Chinese hamster ovary (CHO) cells (P16473 21-764): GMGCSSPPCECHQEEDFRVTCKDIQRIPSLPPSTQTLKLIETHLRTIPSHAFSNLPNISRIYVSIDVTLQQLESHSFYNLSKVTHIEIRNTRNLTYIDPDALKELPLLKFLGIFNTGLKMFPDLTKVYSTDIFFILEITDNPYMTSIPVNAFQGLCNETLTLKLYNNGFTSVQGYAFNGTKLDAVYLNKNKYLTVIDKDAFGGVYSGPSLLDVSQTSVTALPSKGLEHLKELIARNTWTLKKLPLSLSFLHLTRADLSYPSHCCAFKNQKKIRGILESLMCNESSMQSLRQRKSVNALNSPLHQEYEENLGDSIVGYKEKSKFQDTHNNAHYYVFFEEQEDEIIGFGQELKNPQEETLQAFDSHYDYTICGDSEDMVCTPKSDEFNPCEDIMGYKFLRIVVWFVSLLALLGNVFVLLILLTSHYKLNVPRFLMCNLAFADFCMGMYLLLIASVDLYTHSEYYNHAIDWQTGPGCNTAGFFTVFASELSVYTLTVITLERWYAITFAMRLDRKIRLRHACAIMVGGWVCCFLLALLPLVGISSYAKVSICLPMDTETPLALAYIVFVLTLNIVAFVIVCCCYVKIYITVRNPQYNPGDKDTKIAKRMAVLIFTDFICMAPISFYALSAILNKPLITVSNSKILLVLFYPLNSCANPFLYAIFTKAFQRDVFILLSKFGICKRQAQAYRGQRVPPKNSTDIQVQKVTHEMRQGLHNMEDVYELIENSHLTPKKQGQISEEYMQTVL
T1 sequence (P16473 21-764 limits assumed): as the sequence (P16473 21-764) above
Chain of TSH receptor of isolated porcine thyroid cells (Q8SPP9 22-764): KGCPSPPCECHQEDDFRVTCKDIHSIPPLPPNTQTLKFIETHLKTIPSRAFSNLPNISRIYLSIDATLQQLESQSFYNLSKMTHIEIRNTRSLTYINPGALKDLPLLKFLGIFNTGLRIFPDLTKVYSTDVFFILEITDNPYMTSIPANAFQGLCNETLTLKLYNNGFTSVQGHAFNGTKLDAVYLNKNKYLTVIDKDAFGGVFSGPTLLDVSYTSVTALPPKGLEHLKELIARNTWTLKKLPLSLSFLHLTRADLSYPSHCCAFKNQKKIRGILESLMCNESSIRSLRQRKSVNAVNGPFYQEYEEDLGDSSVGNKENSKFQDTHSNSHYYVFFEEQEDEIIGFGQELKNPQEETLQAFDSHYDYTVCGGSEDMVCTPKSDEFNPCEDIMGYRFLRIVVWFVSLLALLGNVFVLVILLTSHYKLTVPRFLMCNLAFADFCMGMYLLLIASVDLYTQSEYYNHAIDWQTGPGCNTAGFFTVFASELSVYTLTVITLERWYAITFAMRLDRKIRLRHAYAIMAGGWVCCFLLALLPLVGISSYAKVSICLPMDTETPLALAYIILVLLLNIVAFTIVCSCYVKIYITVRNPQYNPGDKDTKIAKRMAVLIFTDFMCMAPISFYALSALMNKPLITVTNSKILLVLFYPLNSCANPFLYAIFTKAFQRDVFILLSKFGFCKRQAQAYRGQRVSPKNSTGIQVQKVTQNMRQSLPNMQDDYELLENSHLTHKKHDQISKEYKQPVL

B1: 2B4 IgG (antibody, V domains shown, not shown: a dimerising Fc or GST)
VH: DVQLQQSGTVLARPGASVRMSCKASGYSFTRYWIHWLKQRPGQGLEWIGAIFPGNRDTSYNQRFKGKAEVTAVTSASTAYLDLSSLTNEDSAVYYCTRWPYYGSIYVNFDYWGQGTTLTVSS
VL: DIVMTQSPLSLPVSLGDQASISCRTSQNLVHRNGNTYLHWYLQKPGQSPKLLIYKISNRFSGVPDRFSGSGSGTDFTLKISRVEAEDLGVYFCSQGTHVPPTFGGGTKLEIKR
notes: mouse monoclonal IgG; also called 2B4 MAb
For B1, in experiment [1], the “Stimulation (%) of cyclic AMP, CHO cells expressing human TSHR; 20 µg/ml, diluted 1:10” value (from here on “Stimulation (%) of cyclic AMP … diluted 1:10”) turned out to be 111%. In addition, in experiment [2], the “Stimulation (%) of cyclic AMP, isolated porcine thyroid cells; 2 µg/ml” value (“Stimulation (%) of cyclic AMP … 2 µg/ml” for short) amounted to 116% and the “Stimulation (%) of cyclic AMP, isolated porcine thyroid cells; 20 µg/ml” value turned out to be 100%. Moreover, in experiment [3], the “% inhibition of TSH binding” value was 69.9%.

B2: 3B3 IgG (antibody, V domains shown)
VH: DVQLQQPGAELVKPGASVKLSCTTSGVNIKDTYMHWMKQRPEQGLEWIGRIDPANGNTKYDPKFRGKATITADTSSNTVYVQLRSLTSEDTAVYYCAYDGYWGQGTLVTVSA
VL: NIVMTQTPASLAVSLGQRATISCRASESVDSYGNNFMHWYQQKPGQSPRLLIYRASNLESGIPARFSGSGSRTDFTLTTNPVEADDVATYYCQQSHKDPLTFGAGTKLELK
As to B2, in experiment [2], the “Stimulation (%) of cyclic AMP, isolated porcine thyroid cells; 20 µg/ml” value turned out to be 37% and the “Stimulation (%) of cyclic AMP, isolated porcine thyroid cells; 200 µg/ml” value (from here on “Stimulation (%) of cyclic AMP … 200 µg/ml”) is 34%.

B3: 3B3 Fab (Fab, V domains shown)
VH: DVQLQQPGAELVKPGASVKLSCTTSGVNIKDTYMHWMKQRPEQGLEWIGRIDPANGNTKYDPKFRGKATITADTSSNTVYVQLRSLTSEDTAVYYCAYDGYWGQGTLVTVSA
VL: NIVMTQTPASLAVSLGQRATISCRASESVDSYGNNFMHWYQQKPGQSPRLLIYRASNLESGIPARFSGSGSRTDFTLTTNPVEADDVATYYCQQSHKDPLTFGAGTKLELKR
As for B3, the “Stimulation (%) of cyclic AMP … 200 µg/ml” value in experiment [2] came out at 42%.

B4: 4D7 IgG (antibody, V domains shown, not shown: a dimerising Fc or GST)
VH: DVQLKHSGPELVKPGASMKISCKASGYSFTGYTMNWVKQSHGKNLEWIGLINPYTGGTNYNQKFKGKAKLTVDKSSSTAFMELLSLTSEDSAVYYCARDGNLDYWGQGTTLTVSS
VL: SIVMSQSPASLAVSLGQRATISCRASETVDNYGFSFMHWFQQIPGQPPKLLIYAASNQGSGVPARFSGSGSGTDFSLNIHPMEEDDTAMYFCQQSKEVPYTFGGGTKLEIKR
notes: mouse monoclonal IgG; also called Mab 4D7
With B4, the “% inhibition of 125I-16E5 Fab binding” value in experiment [4] amounted to 24.2%. In experiment [2], the “Stimulation (%) of cyclic AMP, isolated porcine thyroid cells; 20 µg/ml” value amounted to 31% and the “Stimulation (%) of cyclic AMP … 200 µg/ml” value stood at 259%.

B5: 3C7 IgG (antibody, V domains shown, not shown: a dimerising Fc or GST)
VH: DVQLKHSGPELVKPGASMKISCKASGYSFTGYTMNWVKQSHGKNLDWIGLINPYNGGTSYDQKFKGKATLTVDKSSSTAYMELLSLTSEDSAVYYCARDGLMDYWGQGTSVTVSS
VL: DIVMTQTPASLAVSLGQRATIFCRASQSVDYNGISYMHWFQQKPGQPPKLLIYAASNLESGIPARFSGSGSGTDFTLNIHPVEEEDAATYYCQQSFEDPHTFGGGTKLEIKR
notes: mouse monoclonal IgG
Consider B5, for which the “% inhibition of 125I-16E5 Fab binding” value in experiment [4] came out at 17%.

B6: 16E5 IgG (antibody, V domains shown, not shown: a dimerising Fc or GST)
VH: DVQLVQSGPELVKPGASVKMSCKASGYSFTGYNMHWVKQSHGKSLEWIGYIDPYNGATSYNQKFEDKATLTVDKSSSTAYMQLNSLTSEDSAVYYCARRWDWDPYAMDYWGQGTSVTVSS
VL: DILLTQSPAILSVSPGERVSFSCRASQSIGTSIHWYQQRTNGSPRLLIKYASESISGIFSRFSGSGSGTDFTLTINSVESEDIADYYCQQSNRWPLTFGAGTKLELKR
notes: mouse monoclonal IgG; also called MAb 16E5
With B6, the “% inhibition of 125I-16E5 Fab binding” value in experiment [4] was 70.4%. Also, the “Stimulation (%) of cyclic AMP … diluted 1:10” value in experiment [1] turned out to be 850%. For the same molecule, in experiment [2], the “Stimulation (%) of cyclic AMP … 2 µg/ml” value was 269%; the “Stimulation (%) of cyclic AMP, isolated porcine thyroid cells; 20 µg/ml” value came out at 332%; the “Stimulation (%) of cyclic AMP … 200 µg/ml” value is 466%. In addition, the “% inhibition of TSH binding” value in experiment [5] came to 83.3%. In addition, the “% inhibition of TSH binding” value in experiment [3] was determined as 73.6%.

B7: 14D3 IgG (antibody, V domains shown, not shown: a dimerising Fc or GST)
VH: DVQMQQPGPELVKPGASLKMSCKASGYSFTGYNMHWVKQSHGKSLEWIGYIDPYSGATSYNQKFEGKATLTVDKSSSTAYMQLNSLTSEDSAVYYCARRWDWDPYAMDYWGQGTSVTVSS
VL: NILMTQSPAILSVSPGERVSFACRASQSIGTSIHWYQQRTNGSPRLLIKYASESISGIPSRFSGSGSGTDFTLSINSVESEDIADYYCQQTNRWPLTFGAGTKLELKR
notes: mouse monoclonal IgG; also called MAb 14D3
Consider B7, for which the “% inhibition of 125I-16E5 Fab binding” value in experiment [4] amounted to 67.6%. Also, in experiment [1], the “Stimulation (%) of cyclic AMP … diluted 1:10” value turned out to be 908%. Further, in experiment [2], the “Stimulation (%) of cyclic AMP … 2 µg/ml” value was 323%; the “Stimulation (%) of cyclic AMP, isolated porcine thyroid cells; 20 µg/ml” value came out at 351%; the “Stimulation (%) of cyclic AMP … 200 µg/ml” value was 557%. Also, the “% inhibition of TSH binding” value in experiment [5] stood at 76.4%. The “% inhibition of TSH binding” value in experiment [3] stood at 61%.

B8: 17D2 IgG (antibody, V domains shown, not shown: a dimerising Fc or GST)
VH: DVQIQQSGPELVKPGASVKMSCKASGYSFTAYNMHWVKQTHGKSLEWIGYIDPYSGATSYHQKFKGKATLTVDKSSSTAYMRLNSLTSEDSAVYYCARRWDWDPYAMDYWGQGTSVTVSS
VL: SVEMSQSPAILSVSPGERISFSCRASQSIGTSIHWYQQRTNGSPRLLIKYASASISGIPSRFSGSGSGTDFTLSINSVESEDIADYYCQQSNSWPLTFGAGTKLELKR
notes: mouse monoclonal IgG
As for B8, in experiment [4], the “% inhibition of 125I-16E5 Fab binding” value is 69.2%. In experiment [2], the “Stimulation (%) of cyclic AMP … 2 µg/ml” value is 134%; the “Stimulation (%) of cyclic AMP, isolated porcine thyroid cells; 20 µg/ml” value came to 207%; the “Stimulation (%) of cyclic AMP … 200 µg/ml” value is 377%. Besides, in experiment [5], the “% inhibition of TSH binding” value is 81.3%. Also, the “% inhibition of TSH binding” value in experiment [3] amounted to 73.7%.

B9: 17D2 Fab (Fab, V domains shown)
VH: DVQIQQSGPELVKPGASVKMSCKASGYSFTAYNMHWVKQTHGKSLEWIGYIDPYSGATSYHQKFKGKATLTVDKSSSTAYMRLNSLTSEDSAVYYCARRWDWDPYAMDYWGQGTSVTVSS
VL: SVEMSQSPAILSVSPGERISFSCRASQSIGTSIHWYQQRTNGSPRLLIKYASASISGIPSRFSGSGSGTDFTLSINSVESEDIADYYCQQSNSWPLTFGAGTKLELKR
notes: Fab of the mouse MAb
As to B9, in experiment [6], the “% inhibition of TSH binding” value was 45%. For the same molecule, in experiment [2], the “Stimulation (%) of cyclic AMP … 200 µg/ml” value was determined as 274%.

B10: 16E5 Fab (Fab, V domains shown)
VH: DVQLVQSGPELVKPGASVKMSCKASGYSFTGYNMHWVKQSHGKSLEWIGYIDPYNGATSYNQKFEDKATLTVDKSSSTAYMQLNSLTSEDSAVYYCARRWDWDPYAMDYWGQGTSVTVSS
VL: DILLTQSPAILSVSPGERVSFSCRASQSIGTSIHWYQQRTNGSPRLLIKYASESISGIFSRFSGSGSGTDFTLTINSVESEDIADYYCQQSNRWPLTFGAGTKLELKR
notes: papain Fab of the mouse MAb
B10: in experiment [6], the “% inhibition of TSH binding” value amounted to 53%. In addition, in experiment [2], the “Stimulation (%) of cyclic AMP … 200 µg/ml” value worked out at 425%.

B11: 14D3 Fab (Fab, V domains shown)
VH: DVQMQQPGPELVKPGASLKMSCKASGYSFTGYNMHWVKQSHGKSLEWIGYIDPYSGATSYNQKFEGKATLTVDKSSSTAYMQLNSLTSEDSAVYYCARRWDWDPYAMDYWGQGTSVTVSS
VL: NILMTQSPAILSVSPGERVSFACRASQSIGTSIHWYQQRTNGSPRLLIKYASESISGIPSRFSGSGSGTDFTLSINSVESEDIADYYCQQTNRWPLTFGAGTKLELKR
notes: Fab of the mouse MAb
On to B11, for which, in experiment [6], the “% inhibition of TSH binding” value amounted to 64%. Besides, in experiment [2], the “Stimulation (%) of cyclic AMP … 200 µg/ml” value was 648%.
